The values below come from patent US20250186541A1, “DLL3 TARGETING PEPTIDES AND CONSTRUCTS THEREOF” (MARIANA ONCOLOGY INC., priority 2023, published 2025).

The test system of test [1] is SHP-77 cells. As to the kind of experiment: Cell binding (total uptake) of [177Lu]Lu-labeled peptide, gamma counter bound fraction. Format: cell-based, human. The conditions noted are these: [177Lu]Lu-test peptide, 1 h, 37° C., 1% PBSA. The procedure: (§1) Example 4. Cell Binding, Internalization, and Radiolabeling of Targeting Moieties Polypeptides General Procedure for Radiolabeling of RPTs with [^177Lu]LuCl3
(§2) [^177Lu]LuCl3 was received from venders in HCl solution. For every mCi of [^177Lu]LUCl3 added to the reaction vial (1.5 mL Eppendorf vial), ammonium acetate buffer (0.2 M, pH 4.9, 100 μL, containing 1% w/v ascorbic acid and 6% v/v ethanol) and peptide conjugate (1 nmol) was added. The pH of the solution was determined to be approximately 5 by using pH strips. The reaction vial was incubated at 80° C., 700 RPM for 17-20 minutes. A sample from the reaction was analyzed by RP-HPLC using an Agilent Infinity II 1260 HPLC to determine reaction completion and radiochemical purity. HPLC conditions: Waters XBridge BEH […] Column, 130 Å, 3.5 um, 4.6 mm×250 mm; mobile phase: Solvent A=water (with 0.1% formic acid), solvent B=acetonitrile (with 0.1% formic acid). Gradients: 25-45% B in 10 minutes, 45-65% B in 12 minutes, 65-90% in 6 minutes at a flow rate of 0.5 mL/min. Required amounts of the product was formulated in 1% PBSA for cell studies.
(§3) The study was conducted using SHP-77cells (Table 7) Adherent cell studies: The cells were cultured in appropriate culture media (20 mL) in tissue culture treated T150 flasks at 37° C. and 5% CO2. Adherent cells were detached (60-70% confluent) using 5 mL Versene at 37° C. for 3 min. After confirming the viability using countess and count of detached cells using Trypan blue, the cells were centrifuged at 4° C. for 5 minutes (1,000 rpm). The cell pellet obtained was washed once with PBS and resuspended in 1% PBSA to obtain the desired cell concentration (5-25 million cells/mL).
(§4) Suspension cell studies: The cells were cultured in appropriate culture media (20 mL) in tissue culture treated T150 flasks at 37° C. and 5% CO2. After confirming the viability and count of detached cells using Trypan blue, the cells were centrifuged at 4° C. for 5 minutes (1,000 rpm). The cell pellet obtained was washed once with PBS and resuspended in 1% PBSA to obtain the desired cell concentration (5-25 million cells/mL).
(§5) Cell numbers used for the assay were in the range of 5 million cells/condition −25 million cells/condition.
Total uptake: Cells were incubated with 300 μL (0.8 μCi) of the incubation buffer (containing radiolabeled peptide [^177Lu]Lu-test peptide) for 1 hour at 37 C (Table 8). Post incubation, the cells were pelleted and washed 2 times using cold PBS+1% BSA. The supernatant and washes were combined and counted together as “unbound fraction” in a gamma counter. The cells were then resuspended in 300 μL of 1% PBS+1% BSA and counted in the gamma counter as “bound fraction”.
(§6) SHP-77 cells are human-derived, non-engineered SCLC cells.

The next test has as its target T1, human DLL3 (Homo sapiens, UniProt Q9NYJ7).
T1 construct: biotin (biotinylated)
T1 sequence (Q9NYJ7 27-618): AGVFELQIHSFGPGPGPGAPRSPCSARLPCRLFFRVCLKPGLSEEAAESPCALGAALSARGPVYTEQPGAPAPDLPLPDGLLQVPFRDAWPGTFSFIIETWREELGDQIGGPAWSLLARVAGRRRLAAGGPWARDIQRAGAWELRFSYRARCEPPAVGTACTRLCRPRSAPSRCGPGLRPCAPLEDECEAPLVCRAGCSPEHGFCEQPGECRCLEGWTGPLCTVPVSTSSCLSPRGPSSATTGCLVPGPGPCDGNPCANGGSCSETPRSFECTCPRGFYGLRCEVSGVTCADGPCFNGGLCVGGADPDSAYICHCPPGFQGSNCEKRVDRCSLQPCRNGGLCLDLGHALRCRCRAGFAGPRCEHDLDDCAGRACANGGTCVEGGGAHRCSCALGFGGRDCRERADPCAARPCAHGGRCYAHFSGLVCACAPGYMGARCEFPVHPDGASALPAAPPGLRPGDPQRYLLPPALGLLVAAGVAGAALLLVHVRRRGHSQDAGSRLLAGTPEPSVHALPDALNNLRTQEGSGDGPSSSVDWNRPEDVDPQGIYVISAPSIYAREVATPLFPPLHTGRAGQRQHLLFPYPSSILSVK
Briefly: Affinity determination by Surface Plasmon Resonance (SPR), Biacore, 1:1 binding model. The following applies: biotinylated human DLL3 on streptavidin chip, 25° C.; NB = nonbinding. In outline: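 SPR with biotinylated human DLL3 captured on a streptavidin chip, with a reference surface subtracted. Samples were injected at several concentrations at 100 μL/min in phosphate buffer with 137 mM NaCl, 2.7 mM KCl, 0.05% P20 and 2% DMSO. Kinetic and affinity constants came from a 1:1 binding fit.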

For test [2], the system named is SHP-77 cells. As to the kind of experiment: Internalization of [177Lu]Lu-labeled peptide after glycine acid wash, gamma counter internalized fraction. Format: cell-based, human. The conditions noted are these: [177Lu]Lu-test peptide, 1 h, 37° C., acid wash 50 mM Glycine pH 2.5. The procedure: as §1, §2, §3, §4, §5
Internalization: The resuspended cells in 300 μl of 1% PBSA and counted in the gamma counter as “bound fraction” were collected in 1.5 ml Eppendorf tube and pelleted. The pelleted cells were incubated with 300 μl of 50 mM Glycine pH=2.5 for 3 minutes and then pelleted discarding the supernatant. This process was repeated one more time. The pelleted cells were washed with 300 μl of cold 1% PBSA and then resuspended in 300 μl 0.3M NaOH. This was counted in the gamma counter as “internalized fraction”.
as §6

For test [3], the target named is Biotinylated human DLL3 (human) (UniProt Q9NYJ7). As to the kind of experiment: SPR, biotin-hDLL3 on SA chip.
Test [4] concerns the target DLL3 on SHP-77 cells (human) (UniProt Q9NYJ7). Briefly: 177Lu-labelled peptide on SHP-77 cells, 1 h 37 C, gamma count of bound fraction.

Numbered stars: 1 amine (or outer) side, 2 acyl side, 3 side chain; on linkers, the order of the positions; unused ones are H or OH. Bridge positions count the residues as written; N and C are the ends. Square brackets hold non-standard residues; d marks the D form. Peptide text beside a SMILES is read from it. * marks the point of attachment. Ala(piperidin-4-yl) = O=C([C@H](CC1CCN([*:3])CC1)N[*:1])[*:2]; DOTA = O=C(O)CN1CCN(CC(=O)O)CCN(CC(=O)*)CCN(CC(=O)O)CC1; Trp(7-Me) = Cc1cccc2c(C[C@H](N)C(=O)O)c[nH]c12; Phe(4-CH2NH2) = NCc1ccc(C[C@H](N)C(=O)O)cc1; 1Nal = N[C@@H](Cc1cccc2ccccc12)C(=O)O; 2Nal = N[C@@H](Cc1ccc2ccccc2c1)C(=O)O; Phe(2-Me) = Cc1ccccc1C[C@H](N)C(=O)O; NMeChg = CN[C@H](C(=O)O)C1CCCCC1; tBuAla = CC(C)(C)C[C@H](N)C(=O)O; αMeD = C[C@](N)(CC(=O)O)C(=O)O; AllylGly = C=CC[C@H](N)C(=O)O; PAF(DOTA) = not defined here; αMeP = C[C@@]1(C(=O)O)CCCN1; NMeS = CN[C@@H](CO)C(=O)O; PAF = not defined here; Ahx = NCCCCCC(=O)O

`CC(=O)N[C@H](C)C(=O)N(C)[C@@H](CO)C(=O)N[C@@H](CC(=O)O)C(=O)N[C@H]1C/C=C/C[C@@H](C(=O)N2CCC[C@@]2(C)C(=O)N[C@@H](Cc2ccccc2)C(=O)N[C@@H](CC(=O)O)C(N)=O)NC(=O)[C@H](CC(N)=O)NC(=O)[C@H](Cc2ccc3ccccc3c2)NC(=O)[C@H](Cc2ccc(CNC(=O)CN3CCN(CC(=O)O)CCN(CC(=O)O)CCN(CC(=O)O)CC3)cc2)NC(=O)[C@H](CC(C)(C)C)NC(=O)[C@H](Cc2cccc3ccccc23)NC1=O` [compound 195, Ac-(D-Ala)-(NMe-Ser)-D-AllyG(4)-(1Nal)-(t-Bu-Ala)-[PAF(DOTA)]-(2Nal)-N-AllyG(4)-(aMe-P)-F-D-CONH2] (Ac-[dA][NMeS]D[AllylGly][1Nal][tBuAla][Phe(4-CH2NH2)](DOTA)[2Nal]N[AllylGly][αMeP]FD-NH2; staple (E) 4-10): the “% Binding” value in the test on SHP-77 cells [1] is listed as 7%. The molecule further came in with a Kd at human DLL3 of 0.63 nM. Further, the “% Internalization (out of bound fraction)” value with SHP-77 cells [2] was found to be 43%.

With `CC(=O)N[C@@H](CC1CCNCC1)C(=O)N[C@@H](CO)C(=O)N[C@@H](CC(=O)O)C(=O)N[C@H]1CC=CC[C@@H](C(=O)N2CCC[C@@]2(C)C(=O)N[C@@H](Cc2ccccc2)C(=O)N[C@@H](CC(=O)O)C(N)=O)NC(=O)[C@H](CC(N)=O)NC(=O)[C@H](Cc2ccc3ccccc3c2)NC(=O)[C@H](Cc2ccc(CNC(=O)CN3CCN(CC(=O)O)CCN(CC(=O)O)CCN(CC(=O)O)CC3)cc2)NC(=O)[C@H](CC(C)(C)C)NC(=O)[C@H](Cc2cccc3ccccc23)NC1=O` [compound 200, Ac-[3-(4-piperidinyl)-Ala]-S-D-AllyG(4)-(1Nal)-(t-Bu-Ala)-[PAF(DOTA)]-(2Nal)-N-AllyG(4)-(aMe-P)-F-D-CONH2] (Ac-[Ala(piperidin-4-yl)]SD[AllylGly][1Nal][tBuAla][Phe(4-CH2NH2)](DOTA)[2Nal]N[AllylGly][αMeP]FD-NH2; staple 4-10), the “% Binding” value with SHP-77 cells [1] is 6%. This molecule had a Kd at human DLL3 of 0.18 nM. Moreover, the “% Internalization (out of bound fraction)” value in the test on SHP-77 cells [2] was 46%.

B1: Cpd #188 (peptide)
peptide: Ac-[Ala(piperidin-4-yl)]SDC[1Nal][NMeChg][PAF](DOTA)[Trp(7-Me)]NC[αMeP]FD-NH2
modifications: disulfide 4-10; reading uncertain; also: printed as Ac-[3-(4-piperidinyl)-Ala]-S-D-C(3)-(1Nal)-(NMe-Chg)-[PAF(DOTA)]-(7Me-W)-N-C(3)-(aMe-P)-F-D-CONH2; (3)=disulfide
On to B1, for which the Kd in test [3] is over 30 nM.

Take {DOTA}-[Ahx]SDC[1Nal][tBuAla][Ala(piperidin-4-yl)][2Nal]NC[αMeP]FD-NH2 (disulfide 4-10; also: 177Lu chelated) [[177Lu]Lu-Cpd #176]: the % Binding in test [4] worked out at 6%.

Ac-[dA]SDC[1Nal][tBuAla]A[2Nal]DC[αMeP]FD[dK](DOTA)-NH2 (disulfide 4-10; also: 177Lu chelated) [[177Lu]Lu-Cpd #166]: in test [4], the % Binding came out at 7%.

B2: [177Lu]Lu-Cpd #191 (peptide)
peptide: Ac-[Ala(piperidin-4-yl)][NMeS]DC[1Nal][tBuAla][PAF(DOTA)][2Nal]NC[αMeP]FD-NH2
modifications: disulfide 4-10; reading uncertain; also: 177Lu chelated, printed as Ac-[3-(4-piperidinyl)-Ala]-(NMe-Ser)-D-C(3)-(1Nal)-(t-Bu-Ala)-[PAF(DOTA)]-(2Nal)-N-C(3)-(aMe-P)-F-D-CONH2; (3)=disulfide; 177Lu chelated
On to B2, for which, in test [4], the % Binding came to 10%.

As for Ac-[Ala(piperidin-4-yl)]SD[AllylGly][1Nal][tBuAla][PAF(DOTA)][2Nal]N[AllylGly][αMeP]FD-NH2 (staple 4-10; reading uncertain; also: 177Lu chelated) [[177Lu]Lu-Cpd #200], the % Binding in test [4] is 6%.

B3: [177Lu]Lu-Cpd #158 (peptide)
peptide: Ac-[dA]SDC[1Nal][tBuAla][PAF(DOTA)][2Nal]NC[αMeP]FD-NH2
modifications: disulfide 4-10; reading uncertain; also: 177Lu chelated, printed as Ac-(D-Ala)-S-D-C(3)-(1Nal)-(t-Bu-Ala)-[PAF(DOTA)]-(2Nal)-N-C(3)-(aMe-P)-F-D-CONH2; (3)=disulfide; 177Lu chelated
B3 had a % Binding in test [4] of 25%.

With Ac-[dA]S[αMeD]C[1Nal][tBuAla]Q[2Nal]NC[αMeP]FD[dK](DOTA)-NH2 (disulfide 4-10; also: 177Lu chelated) [[177Lu]Lu-Cpd #168], the % Binding in test [4] came to 8%.

In turn, {DOTA}-[dA]SDC[1Nal][tBuAla]Q[2Nal]NC[αMeP][Phe(2-Me)]D-NH2 (disulfide 4-10; also: 177Lu chelated) [[177Lu]Lu-Cpd #154] had a % Binding in test [4] of 10%.

B4: [177Lu]Lu-Cpd #192 (peptide)
peptide: Ac-[Ala(piperidin-4-yl)][NMeS]NC[1Nal][tBuAla][PAF(DOTA)][2Nal]DC[αMeP]FD-NH2
modifications: disulfide 4-10; reading uncertain; also: 177Lu chelated, printed as Ac-[3-(4-piperidinyl)-Ala]-(NMe-Ser)-N-C(3)-(1Nal)-(t-Bu-Ala)-[PAF(DOTA)]-(2Nal)-D-C(3)-(aMe-P)-F-D-CONH2; (3)=disulfide; 177Lu chelated
The molecule B4 yielded a % Binding in test [4] of 9%.

For Ac-[dA][NMeS]D[AllylGly][1Nal][tBuAla][PAF(DOTA)][2Nal]N[AllylGly][αMeP]FD-NH2 (staple 4-10; reading uncertain; also: 177Lu chelated) [[177Lu]Lu-Cpd #195], in test [4], the % Binding came to 7%.
